Patent US20030232412

Target: T1, His-tagged PprB
T1 chain: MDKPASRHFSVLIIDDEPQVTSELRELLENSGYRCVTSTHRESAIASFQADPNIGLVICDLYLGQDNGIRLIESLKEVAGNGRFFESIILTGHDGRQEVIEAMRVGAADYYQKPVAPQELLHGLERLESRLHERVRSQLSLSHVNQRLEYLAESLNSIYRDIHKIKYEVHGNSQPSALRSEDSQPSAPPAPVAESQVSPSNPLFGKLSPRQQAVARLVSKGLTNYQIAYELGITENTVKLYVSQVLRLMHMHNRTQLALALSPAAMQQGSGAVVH

B1: His-tagged PprA (protein)
chain: MFEFSRSSSAEAERPEPFSQEGPALWSASLRSWDLCFEMDEQDRVIRVGGRQAYRLQCAHGLGEQPRPFAEYLERRAPGAPTLAGLRRGERLDLTLRSDAAAPLTCRFQPMQPLDGLGRSLLLGMDISDLNWQSDSQQHQLQSLSLGKLILSRLRHVSHGHLAEAVQEILESLSGAFQMQAIALLLGDGKGFCTVFASHVRPGSDSLLRPPLQLADDDLREGAGARLLRRGEGASTLLRQIGEDALYLVPATMRGGRLGALLVRPMSLEQLAQGPAPQDWQYLAELLANQVADRCELHEQHDSSRKLGLLQEMIGGGWWRYWAEQELFELAPALHDSLGLTGEYRRVPLEHLQGLLQPADADELGLRLRASLRSGQALAQDLCLRQPDSRGERRWLRIEGRPLGRGSALGLSGVLLDISEGRRQEERAQAAHARLRSLIDSAPVVIYVQRVEQGHLVPEFYSESASNLLGLDLQGQSWQALAERVHPDDLEAFFARGRELLREGRVKTRYRLADGQGNWHWLYDEAKLLRDAQGLPSEAVGLWLDVTEQHLAAQRIAESEERYRVLVEDSPALICRYTADLVLTYVNRTFADSLATSPERLVGRRLDEWLAAEDASALRARLLGSPREGASEVPELRFNLPGQRFLWLVWAERPLFDARGELCEVQAVGRDNTPVRRAQQQLAQGAKMASLGEMVSGLAHEVKQPLHVLRMTLFNMRQRMNSVGLDGDYLGEKLERMDAQVLRVDRLVSHLGVFSRKSALEALPFDPYAAFEGALGLLGEGLRQHAIEVECPAPTQRMVVRGQADQLEQVIINLLANARDALLGNPGLASRRVRLEQVACREPGWVELHVHDNGGGIEPLLLERIFEPFFTTKAEGKGTGLGLSVSHDLVRNMGGSLTAANQGEGALFVVRLPLAAPAEAGG
in vitro phosphorylation assay ([gamma-32P]ATP, SDS-PAGE, autoradiography): PprA was phosphorylated; PprB was not. Notably, however, when PprA was mixed with PprB, PprB became highly phosphorylated.
